Source: patent US20180155451A1 (published 2018)
Residue numbers refer to the chain shown, from its start. In names and notes the source's numbering stands.

T1: FcgRIIa R (human, UniProt P12318 34-217)
T1 construct: extracellular domain; also called FcγRIIa R; FcγRIIa type R; not shown: His tag attached to the C terminus
T1 sequence (looked up): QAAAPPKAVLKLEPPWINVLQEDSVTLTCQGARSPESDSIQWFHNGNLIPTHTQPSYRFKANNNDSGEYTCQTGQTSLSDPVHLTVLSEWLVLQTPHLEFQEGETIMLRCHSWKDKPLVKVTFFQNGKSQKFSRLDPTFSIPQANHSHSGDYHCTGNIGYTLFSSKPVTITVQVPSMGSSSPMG

T2: FcgRIIa H (human, UniProt P12318 34-217)
T2 construct: extracellular domain; also called FcγRIIa H; FcγRIIa type H; not shown: His tag attached to the C terminus
T2 sequence (looked up): T1 sequence (looked up) with R134H

T3: FcgRIIb (human, UniProt P31994 43-217)
T3 construct: extracellular domain; also called FcγRIIb; not shown: His tag attached to the C terminus
T3 sequence (looked up): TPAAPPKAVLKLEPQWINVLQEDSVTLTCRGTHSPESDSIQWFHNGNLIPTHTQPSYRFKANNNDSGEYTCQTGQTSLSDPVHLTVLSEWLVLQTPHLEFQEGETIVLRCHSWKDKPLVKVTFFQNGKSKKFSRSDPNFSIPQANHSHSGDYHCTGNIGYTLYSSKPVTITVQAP

T4: FcγRIIb extracellular domain with C-terminal His tag (human, UniProt P31994 43-217)
T4 construct: extracellular domain; also called FcgRIIb; 2b; not shown: His tag at the C terminus
T4 sequence (looked up): T3 sequence (looked up)

B1: GpH7-A5/GpH7-B3 variant P238_20W/GpL16-k0 (antibody, human IgG1, kappa)
heavy 1: not shown
heavy 2: not shown
light: DIVMTQSPLSLPVTPGEPASISCQASESLVHSNRNTYLHWYLQKPGQSPQLLIYKVSNRFSGVPDRFSGSGSGTDFTLKISRVEAEDVGVYYCSQNTHVPPTFGQGTKVEIERTVAAPSVFIFPPSDEQLKSGTASVVCLLNNFYPREAKVQWKVDNALQSGNSQESVTEQDSKDSTYSLSSTLTLSKADYEKHKVYACEVTHQGLSSPVTKSFNRGEC
notes: Heterodimerized anti-glypican-3 IgG1; the substitution stands in the GpH7-B3 chain only; also called He Ab
B2: GpH7-A5/GpH7-B3 variant S239_07I/GpL16-k0 (antibody, human IgG1, kappa)
heavy 1: not shown
heavy 2: not shown
light: B1 light
notes: as for B1
B3: GpH7-A5/GpH7-B3 variant S239_19Q/GpL16-k0 (antibody, human IgG1, kappa)
heavy 1: not shown
heavy 2: not shown
light: B1 light
notes: as for B1
B4: GpH7-A5/GpH7-B3 variant S239_06M/GpL16-k0 (antibody, human IgG1, kappa)
heavy 1: not shown
heavy 2: not shown
light: B1 light
notes: as for B1
B5: GpH7-A5/GpH7-B3 variant S239_11K/GpL16-k0 (antibody, human IgG1, kappa)
heavy 1: not shown
heavy 2: not shown
light: B1 light
notes: as for B1
B6: GpH7-A5/GpH7-B3 variant S239_05P/GpL16-k0 (antibody, human IgG1, kappa)
heavy 1: not shown
heavy 2: not shown
light: B1 light
notes: as for B1
B7: GpH7-A5/GpH7-B3 variant S239_16H/GpL16-k0 (antibody, human IgG1, kappa)
heavy 1: not shown
heavy 2: not shown
light: B1 light
notes: as for B1
B8: GpH7-A5/GpH7-B3 variant S239_03V/GpL16-k0 (antibody, human IgG1, kappa)
heavy 1: not shown
heavy 2: not shown
light: B1 light
notes: as for B1
B9: GpH7-A5/GpH7-B3 variant S239_04F/GpL16-k0 (antibody, human IgG1, kappa)
heavy 1: not shown
heavy 2: not shown
light: B1 light
notes: as for B1
B10: GpH7-A5/GpH7-B3 variant S239_15Y/GpL16-k0 (antibody, human IgG1, kappa)
heavy 1: not shown
heavy 2: not shown
light: B1 light
notes: as for B1
B11: GpH7-A5/GpH7-B3 variant S239_08L/GpL16-k0 (antibody, human IgG1, kappa)
heavy 1: not shown
heavy 2: not shown
light: B1 light
notes: as for B1
B12: GpH7-A5/GpH7-B3 variant S239_12R/GpL16-k0 (antibody, human IgG1, kappa)
heavy 1: not shown
heavy 2: not shown
light: B1 light
notes: as for B1
B13: H240-Kn061 (A231E)/H240-Hl071/L73-k0 (antibody, human IgG1, kappa)
heavy 1: QDQLVQSGAEVKKPGASVKVSCKASGFNIKDTYIQWVRQAPGQGLEWMGRIDPLRKQTKYREKFEGRVTITADTSTNTAYMELSSLRSEDTAVYYCVRSGREFDYWGQGTLVTVSSASTKGPSVFPLAPSSKSTSGGTAALGCLVKDYFPEPVTVSWNSGALTSGVHTFPAVLQSSGLYSLSSVVTVPSSSLGTQTYICNVNHKPSNTKVDKKVEPKSCDKTHTCPPCPEPEYYWGPSVFLFPPKPKDTLMISRTPEVTCVVVDVSDEDPEVKFNWYVDGVEVHNAKTKPREEQYNATYRVVSVLTVLHQDWLNGKEYKCKVSNKALPAPIEKTISKAKGQPREPQVCTLPPSRDELTKNQVSLWCLVKGFYPSDIAVEWESNGQPENNYKTTPPVLDSDGSFFLYSKLTVDKSRWQQGNVFSCSVMHEALHNHYTQKSLSLSP
heavy 2: QDQLVQSGAEVKKPGASVKVSCKASGFNIKDTYIQWVRQAPGQGLEWMGRIDPLRKQTKYREKFEGRVTITADTSTNTAYMELSSLRSEDTAVYYCVRSGREFDYWGQGTLVTVSSASTKGPSVFPLAPSSKSTSGGTAALGCLVKDYFPEPVTVSWNSGALTSGVHTFPAVLQSSGLYSLSSVVTVPSSSLGTQTYICNVNHKPSNTKVDKKVEPKSCDKTHTCPPCPAPELLGGPSVFLFPPKPKDTLMISRTPEVTCVVVDVSHEDPEVKFNWYVDGVEVHNAKTKPREEQYNSTYRVVSVLTVLHQDWLNGKEYKCKVSNDALPMPIEETISKAKGQPREPQVYTLPPSRCELTKNQVSLSCAVKGFYPSDIAVEWESNGQPENNYKTTPPVLDSDGSFFLVSKLTVDKSRWQQGNVFSCSVMHEALHNHYTQKSLSLSP
light: DIQMTQSPSSLSASVGDRVTITCRASQDIHKYIAWYQQKPGQAPRLLIQYTSTLQPGVPSRFSGSGSGTDYTFTISSLQPEDIATYYCLQYEQLRTFGGGTKVEIKRTVAAPSVFIFPPSDEQLKSGTASVVCLLNNFYPREAKVQWKVDNALQSGNSQESVTEQDSKDSTYSLSSTLTLSKADYEKHKVYACEVTHQGLSSPVTKSFNRGEC
B14: H240-Kn061 (S239L)/H240-Hl071/L73-k0 (antibody, human IgG1, kappa)
heavy 1: B13 heavy 1 with E230A, S238L
heavy 2: B13 heavy 2
light: B13 light
B15: H240-Kn061 (A231V)/H240-Hl071/L73-k0 (antibody, human IgG1, kappa)
heavy 1: B13 heavy 1 with E230V
heavy 2: B13 heavy 2
light: B13 light
B16: H240-Kn061 (A231Q)/H240-Hl071/L73-k0 (antibody, human IgG1, kappa)
heavy 1: B13 heavy 1 with E230Q
heavy 2: B13 heavy 2
light: B13 light
B17: H240-Kn061 (S239I)/H240-Hl071/L73-k0 (antibody, human IgG1, kappa)
heavy 1: B13 heavy 1 with E230A, S238I
heavy 2: B13 heavy 2
light: B13 light

target: T5, FcγRIIIa extracellular domain with C-terminal His tag (human, UniProt P08637 17-208); experiment: SPR; He/Con_3a divided by He/Con_2b (binding to FcγRIIb is the reference)
T5 construct: extracellular domain; also called FcgRIIIa; 3a; not shown: His tag at the C terminus
T5 sequence (P08637 17-208): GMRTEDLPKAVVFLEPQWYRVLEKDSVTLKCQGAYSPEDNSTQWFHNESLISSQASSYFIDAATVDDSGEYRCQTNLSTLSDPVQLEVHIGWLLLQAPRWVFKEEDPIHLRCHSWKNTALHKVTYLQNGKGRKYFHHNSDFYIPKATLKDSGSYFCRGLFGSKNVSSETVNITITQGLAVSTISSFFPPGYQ
Method: Analysis of interaction between objective antibody and the FcγR was carried out using Biacore T100 (GE Healthcare). HBS-EP+ (GE Healthcare) was used as the running buffer, and the measurement temperature was set to 25° C. Chips produced by immobilizing the antigen peptide by the amine coupling method to a Series S Sencor Chip CM5 (GE Healthcare), or alternatively, chips produced by allowing preliminarily biotinylated antigen peptides to interact with and immobilize onto a Series S Sensor Chip SA (certified) (GE Healthcare) were used. Antibodies of interest were captured onto an antigen peptide-immobilized chip, and allowed to interact to each FcγR diluted with running buffer. To regenerate and repeatedly use the chip, the antibodies captured on the chip were washed off by reacting 10 mM glycine-HCl, pH 1.5.
The FcγR-binding activity of each antibody was assessed primarily using as an indicator the FcγR-binding activity and dissociation constant for FcγR.

| He_3a/2b (IIIa/IIb) [ratio] | Binder |
| --- | --- |
| 0.4 | B1 |
| 0.74 | B2 |
| 0.66 | B3 |
| 0.78 | B4 |
| 0.48 | B5 |
| 0.15 | B6 |
| 0.59 | B7 |
| 0.71 | B8 |
| 0.57 | B9 |
| 0.73 | B10 |
| 0.68 | B11 |
| 0.44 | B12 |

target: T1, FcgRIIa R; experiment: SPR (Biacore); KD of H240-Kn061/H240-Hl071/L73-k0 divided by KD of the variant
Method: (§1) The antibodies were assessed for the binding to each FcgR. […] The resultant value was defined as relative KD, and used as an assessment indicator.
(§2) Analysis of interaction between obj ective antibody and the FcγR was carried out using Biacore T100 (GE Healthcare), Biacore T200, Biacore A100, and Biacore 4000. HBS-EP+ (GE Healthcare) was used as the running buffer, and the measurement temperature was set to 25° C. Chips produced by immobilizing the antigen peptide by the amine coupling method to a Series S sensor Chip CM5 (GE Healthcare), chips produced by allowing preliminarily biotinylated antigen peptides to interact with and immobilize onto a Series S Sensor Chip SA (certified) (GE Healthcare), chips produced by immobilizing Protein L (ACTIGEN, BioVision) to Series S Sencor Chip CM5 (GE Healthcare), or chips produced by immobilizing Protein A/G (Thermo Scientific) to Series S Sencor Chip CM5 (GE Healthcare) were used. Antibodies of interest were captured onto these chips, and allowed to interact to each FcγR diluted with running buffer.

| Relative KD | Binder |
| --- | --- |
| 1.7 | B13 |
| 4.8 | B14 |
| 1.6 | B15 |
| 1.5 | B16 |
| 4.4 | B17 |

target: T2, FcgRIIa H; experiment: as above
Method: as §1, §2

| Relative KD | Binder |
| --- | --- |
| 1.6 | B13 |
| 2.4 | B14 |
| 1.6 | B15 |
| 1.5 | B16 |
| 2.1 | B17 |

target: T3, FcgRIIb; experiment: as above
Method: as §1, §2

| Relative KD | Binder |
| --- | --- |
| 1.4 | B13 |
| 3.4 | B14 |
| 1.6 | B15 |
| 1.4 | B16 |
| 3.1 | B17 |

target: T6, FcgRIIIa F (human, UniProt P08637 17-208); experiment: as above
T6 construct: extracellular domain; also called FcγRIIIa F; 3aF; not shown: His tag attached to the C terminus
T6 sequence (P08637 17-208): as above
Method: as §1, §2

| Relative KD | Binder |
| --- | --- |
| 1.8 | B13 |
| 3.4 | B14 |
| 1.3 | B15 |
| 1.5 | B16 |
| 3 | B17 |

target: T7, FcgRIIIa V (human, UniProt P08637 17-208); experiment: as above
T7 construct: extracellular domain; also called FcγRIIIa V; not shown: His tag attached to the C terminus
T7 sequence (P08637 17-208 F176V limits assumed): as the sequence (P08637 17-208) above, with F160V counted along it
Method: as §1, §2

| Relative KD | Binder |
| --- | --- |
| 2 | B13 |
| 3.7 | B14 |
| 1.5 | B15 |
| 1.7 | B16 |
| 3.4 | B17 |

target: T5, FcγRIIIa extracellular domain with …; experiment: SPR (Biacore), antibody captured on antigen peptide chip, FcγR as analyte; relative binding amount

| He/Con_3a | Binder |
| --- | --- |
| 49.7 % of GpH7-A5/GpH7-B3/GpL16-k0 (=100) | B1 |
| 79.3 % of GpH7-A5/GpH7-B3/GpL16-k0 (=100) | B2 |
| 56.9 % of GpH7-A5/GpH7-B3/GpL16-k0 (=100) | B3 |
| 78.2 % of GpH7-A5/GpH7-B3/GpL16-k0 (=100) | B4 |
| 11.9 % of GpH7-A5/GpH7-B3/GpL16-k0 (=100) | B5 |
| 14.9 % of GpH7-A5/GpH7-B3/GpL16-k0 (=100) | B6 |
| 29.2 % of GpH7-A5/GpH7-B3/GpL16-k0 (=100) | B7 |
| 76.6 % of GpH7-A5/GpH7-B3/GpL16-k0 (=100) | B8 |
| 25.3 % of GpH7-A5/GpH7-B3/GpL16-k0 (=100) | B9 |
| 25.6 % of GpH7-A5/GpH7-B3/GpL16-k0 (=100) | B10 |
| 95.3 % of GpH7-A5/GpH7-B3/GpL16-k0 (=100) | B11 |
| 17 % of GpH7-A5/GpH7-B3/GpL16-k0 (=100) | B12 |

target: T4, FcγRIIb extracellular domain with …; experiment: as above

| He/Con_2b | Binder |
| --- | --- |
| 123 % of GpH7-A5/GpH7-B3/GpL16-k0 (=100) | B1 |
| 107 % of GpH7-A5/GpH7-B3/GpL16-k0 (=100) | B2 |
| 86.1 % of GpH7-A5/GpH7-B3/GpL16-k0 (=100) | B3 |
| 101 % of GpH7-A5/GpH7-B3/GpL16-k0 (=100) | B4 |
| 24.7 % of GpH7-A5/GpH7-B3/GpL16-k0 (=100) | B5 |
| 102 % of GpH7-A5/GpH7-B3/GpL16-k0 (=100) | B6 |
| 49.4 % of GpH7-A5/GpH7-B3/GpL16-k0 (=100) | B7 |
| 108 % of GpH7-A5/GpH7-B3/GpL16-k0 (=100) | B8 |
| 44.1 % of GpH7-A5/GpH7-B3/GpL16-k0 (=100) | B9 |
| 34.9 % of GpH7-A5/GpH7-B3/GpL16-k0 (=100) | B10 |
| 140 % of GpH7-A5/GpH7-B3/GpL16-k0 (=100) | B11 |
| 39.1 % of GpH7-A5/GpH7-B3/GpL16-k0 (=100) | B12 |
